Assay results as given in PMC12080732 (mAbs, 2025).
Positions count from the first letter of the chain named. Blank lines part the entries; values can stand above or below the binder they belong to.

Biological target: active trimeric human TNFα (human, UniProt P01375 77-233)
Assay: SPR

Chain of active trimeric human TNFα (P01375 77-233): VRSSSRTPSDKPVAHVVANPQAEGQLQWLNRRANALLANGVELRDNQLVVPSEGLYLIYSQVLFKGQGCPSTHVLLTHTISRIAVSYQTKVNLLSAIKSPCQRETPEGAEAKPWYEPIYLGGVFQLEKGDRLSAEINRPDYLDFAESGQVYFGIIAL

Kd: 0.077 nM
koff: 2.87e-05 s⁻¹
B1: TNFI-Nb2 (VHH)
VHH: QVQLVESGGGLVQPGGSLRLSCAASGFAFNDHWMYWVRQAPGKELEWVSEINTNGLITKYADFVKGRFTVSRDNAKNTLYLQMNSLEPEDTAVYSCSRNQIGTLRGQGTQVTVSS

Kd: 0.219 nM
B2: TNFI-Nb1 (VHH)
VHH: B1 VHH with Q1E, N84D, E87R

Kd: 0.392 nM
B3: TNFI-Nb3 (VHH)
VHH: B1 VHH with K76E
